Results on 1 substance are retold here after PMC5827449, “Structural analysis of group II chitinase (ChtII) catalysis completes the puzzle of chitin hydrolysis in insects” (The Journal of Biological Chemistry, 2018).

The test system of the series is T1, CC(=O)N[C@H]1[C@H](Oc2ccc3c(C)cc(=O)oc3c2)O[C@H](CO)[C@@H](O[C@@H]2O[C@H](CO)[C@@H](O)[C@H](O)[C@H]2NC(C)=O)[C@@H]1O.
T1 construct: single GH18 catalytic domain C1 (core 1613-1855 and 1940-1988, insertion domain 1856-1939); His-tag purified from Pichia pastoris GS115
In words: fluorescence of released 4-methylumbelliferone. It counts as biochemical, Ostrinia furnacalis. As to conditions: pH 6.0, 20 mM sodium phosphate, 303 K, 20 min, 30.0 °C. An excerpt: fluorescence of released 4-methylumbelliferone on OfChtII-C1

The Km is the substrate concentration at which the rate is half of its maximum. A word on the kcat: it is the maximal rate divided by the concentration of active sites. In general, kcat/Km refers to the second-order rate constant that governs catalysis at low substrate concentration. “OfChtII-C1 (Ostrinia furnacalis; A1877I/D1864N/D1876G/DEL1865-1874/G1863E/K1875R/N1878H)”: the Km worked out at 15.52 ± 0.98 µM, the kcat is 0.5498 ± 0.0108 s⁻¹ and the catalytic efficiency (kcat/Km) turned out to be 35500 M⁻¹ s⁻¹.
